Experimental data published in patent US10053716B2, “4-amino cinnamic acid production method using enzyme” (JAPAN SCIENCE AND TECHNOLOGY AGENCY, priority 2014, dated 2018).

How the values were obtained:
[1] = Km and kcat of recombinant purified enzyme for 4-aminophenylalanine; assay type: biochemical; conditions: purified His-tag enzyme
Description: (§1) [Measurement of Enzyme Activity of Escherichia coli Recombinant Purified Enzyme]
(§2) Escherichia coli was inoculated into 5 ml of LB medium containing 100 mg/L ampicillin sodium or 100 mg/L kanamycin sulfate, and cultured overnight at 37° C. It was then used to inoculate 200 ml of the same culture medium and cultured to an O.D of 0.6, IPTG was added to a final concentration of 0.5 mM, and the incubation was continued for 12 hours at 28° C. The rotational speed during cultures was 120 rpm. The cultured cells were collected and suspended in 20 mM potassium phosphate buffer (pH 7.5) and subjected to ultrasonic disruption, and after centrifugal separation, the supernatant was purified using a His-Trap column and the enzyme activity was measured. The method of measuring the enzyme activity was according to the method for the crude extract described above.
(§3) Since pET28AtPAL4 and its mutants and RgPAL were produced as fusion proteins with His-tag in the Escherichia coli of Example 3, these enzymes could be easily purified using an affinity column. After culturing the producing cells, the cells were collected, disrupted and purified. The purified enzymes were used to calculate the Km values and kcat values.

[2] = 4APAL activity of Escherichia coli recombinant enzyme crude extract; assay type: biochemical; conditions: crude cell extract, BL21(DE3), 20 mM substrate
Description: (§4) [Measurement of Enzyme Activity of Escherichia coli Recombinant Enzyme Crude Extract]
(§5) Escherichia coli was inoculated into 5 ml of LB medium containing 100 mg/L ampicillin sodium or 100 mg/L kanamycin sulfate, and cultured overnight at 37° C. It was then inoculated into 200 ml of the same culture medium and cultured to an O.D. of 0.6, isopropyl-β-thiogalactopyranoside (IPTG) was added to a final concentration of 0.5 mM, and culturing was conducted for 12 hours at 28° C.
(§6) The cultured cells were collected and suspended in 20 mM potassium phosphate buffer (pH 7.5) and subjected to ultrasonic disruption and the supernatant was used as a crude extract for activity measurement. The enzyme activity was measured and quantified by measuring the absorbance at the absorption wavelength of the reaction product using a spectrophotometer, for a period of 5 minutes. For PAL activity, the crude extract was added to 100 mM Tris Buffer (pH 8.0) and 20 mM phenylalanine, reaction was conducted, and production of cinnamic acid was measured by the change in absorbance at a wavelength of 290 nm, while for 4APAL activity, 20 mM 4-aminophenylalanine was used as substrate and the absorbance at a wavelength of 315 nm due to 4-aminocinnamic acid was measured and quantified.

[3] = Resting cell reaction, production of cinnamic acid; assay type: cell-based, Escherichia coli; conditions: 4-aminophenylalanine alone as substrate
Description: (§7) Escherichia coli was cultured at 37° C. using LB medium containing 100 mg/L ampicillin sodium or 100 mg/L kanamycin sulfate. One platinum loop of the cells was transferred from pregrown agar medium to a test tube containing 5 ml of culture medium, and shake-culture was conducted overnight at 120 rpm.
(§8) The precultured cells were transferred at 1% into 200 ml of the same medium in a baffle-equipped flask. Shake-culture was conducted at 37° C., a prescribed amount of IPTG was added at the point when the O.D. of the culture broth reached 0.3, and the culture was conducted at 28° C. for 12 hours to induce production of the target gene.
(§9) The main cultured cells were collected and rinsed once with 50 mM KPi Buffer (pH 7), and then suspended in 5 ml of a reaction mixture containing 20 mM substrate (4-aminophenylalanine, phenylalanine), for resting cell reaction. The reaction was conducted for 0 to 24 hours while shaking at 37° C. After the reaction, the supernatant was transferred to a centrifuge tube and recovered by centrifugal separation, and high-performance liquid chromatography (HPLC) was used in the following manner for quantitation of the reaction product.
HPLC (1200 infinity series: Hewlett Packard) was used for quantitation. A Purospher STAR RP-18 endcapped column was used, with a mixture of 20 mM potassium phosphate (pH 7.0) and 100% methanol as the eluent. […]

[4] = Km and kcat of recombinant purified enzyme for phenylalanine; assay type: biochemical; conditions: purified His-tag enzyme
Description: as §1, §2, §3

[5] = Resting cell reaction, production of 4-aminocinnamic acid; assay type: cell-based, Escherichia coli
Description: as §7, §8, §9
HPLC (1200 infinity series: Hewlett Packard) was used for quantitation. A Purospher STAR RP-18 endcapped column was used, with a mixture of 20 mM potassium phosphate (pH 7.0) and 100% methanol as the eluent. Measurement was carried out using absorption at wavelengths of 210 nm, 254 nm and 280 nm.
The Escherichia coli BL21-pET28a-RgPAL cells were prepared by the following method. Escherichia coli BL21-pET28a-RgPAL was shake cultured overnight at 37° C., 120 rpm using medium containing 100 mg/L kanamycin sulfate in 5 ml of LB medium (1% tryptone, 0.5% yeast extract, 0.5% sodium chloride). A 2 mL portion of the obtained cell culture solution was transferred into 200 ml of the same medium in a 500 mL-volume Erlenmeyer flask, and then shake cultured at 37° C., 120 rpm. IPTG was added when the optical density of the culture reached 0.3, and shake culture was conducted at 28° C., 120 rpm for 12 hours. The obtained Escherichia coli BL21-pET28a-RgPAL cells were collected by centrifugal separation and rinsed once with 50 mM potassium phosphate (pH 7), after which they were suspended in the same buffer containing 20 mM of substrate (4-aminophenylalanine or phenylalanine), and incubated for 24 hours while shaking at 37° C. After the reaction, the produced 4-aminocinnamic acid or cinnamic acid was quantified using HPLC. Reaction was also carried out in aqueous 50 mM potassium phosphate at pH 8 or 9, using the same method as above. […] In particular, the conversion efficiency increased by 12-fold at pH 7.

[6] = PAL activity of Escherichia coli recombinant enzyme crude extract; assay type: biochemical; conditions: crude cell extract, BL21(DE3), 20 mM substrate
Description: as §4, §5, §6

B1: RgPAL: PAL derived from the yeast Rhodotorula glutinis, amino acid sequence SEQ ID NO: 2 (protein)
chain: MAPSVDSIATSVANSLSNGLAGDLRKKTSGAGSLLPTTETTQIDIVERILADAGATDQIKLDGYTLTLGDVVGAARRGRTVKVADSPQIREKIDASVEFLRTQLDNSVYGVTTGFGGSADTRTEDAISLQKALLEHQLCGVLPTSMDGFALGRGLENSLPLEVVRGAMTIRVNSLTRGHSAVRIVVLEALTNFLNHGITPIVPLRGTISASGDLSPLSYIAASITGHPDSKVHVDGQIMSAQEAIALKGLQPVVLGPKEGLGLVNGTAVSASMATLALTDAHVLSLLAQANTALTVEAMVGHAGSFHPFLHDVTRPHPTQIEVARNIRTLLEGSKYAVHHETEVKVKDDEGILRQDRYPLRCSPQWLGPLVSDMIHAHSVLSLEAGQSTTDNPLIDLENKMTHHGGAFMASSVGNTMEKTRLAVALMGKVSFTQLTEMLNAGMNRALPSCLAAEDPSLSYHCKGLDIAAAAYTSELGHLANPVSTHVQPAEMGNQAINSLALISARRTAEANDVLSLLLATHLYCVLQAVDLRAMEFEHTKEFEPMVTDLLKQHFGALATADVEDKVRKSIYKRLQQNNSYDLEQRWHDTFSVATGAVVEALAGNEVSLASLNAWKVACAEKAIALTRTVRDSFWAAPSSASPALKYLSPRTRILYSFVREDVGVKARRGDVYLGKQEVTIGTNVSRIYEAIKDGRIAPVLVKMMA
modifications: RgPAL cDNA
- Kcat value, 4-Aminophenylalanine [1]: 0.44 s⁻¹
- Km [1]: 22 mM
- 4APAL activity compared to AtPAL4 [2]: 8 fold
- 4APAL activity compared to AtPAL4 ([2]; listed as enzyme of the invention): approximately 8 fold
- cinnamic acid produced compared to AtPAL4 [3]: 36%
- Kcat value, Phenylalanine [4]: 3.4 s⁻¹
- Km [4]: 0.098 mM
- 4-aminocinnamic acid production reached [5]: about 1 g/L
- 4-aminocinnamic acid amount compared to AtPAL4 ([5]; 4-aminophenylalanine alone as substrate): 12 times
- conversion efficiency increase compared to AtPAL4 ([5]; pH 7): 12 fold
- 4-aminocinnamic acid produced, maximum ([5]; resting cells reaction): 825 mg/L
- PAL activity compared to AtPAL4 [6]: 8.5 fold
